First the molecules themselves.
B1: SEQ ID NO 23 (Fab, V domains shown)
VH: EVQLTESGGGLVQPGGSLRLSCAASGSIFSNHWMNWVRQAPGKGLEWIGEIRSKSIYGATHYAESVKGRFIISRDDNGTDLYLEMNSLKTEDTAEYYCARNYYGSTYDYWGQGTLVTVS
VL: EIVLTQSPDFQSVTPKEKVTITCRASQFVGSSIHWYQQKPDQSPKLLIKYASESMSGVPSRFSGSGSGTDFTFTISSLEAEDAATYYCQQSHSWPFTFGPGTKVDIK
notes: Fab, E. coli lysate
B2: SEQ ID NO 42 (Fab, V domains shown)
VH: EVQLVESGGGLVQPGGSLRLSCAASGFTFSNHYMNWVRQAPGKGLEWIGEIRSKSSYSATSYAESVKGRFIISRDDNKNSLTLEMNSLKTEDTAEYYCARNYYGSTPDYWGQGTLVTVS
VL: EIVLTQSPDFQSVTPKEKVTITCRASQFVGSSIHWYQQKPDQSPKLLIKYASESMSGVPSRFSGSGSGTDFTFTISSLEAEDAATYYCQQSHSWPFTFGPGTKVDIK
notes: Fab, E. coli lysate
B3: SEQ ID NO 43 (Fab, V domains shown)
VH: EVQLVESGGGLVQPGGSLRLSCRASGSIFSNHWMNWVRQAPGKGLEWIGEIRSKSINGATSYAESVKGRFIISRDDNGNSLTLEMNSLKTEDTAEYYCAQNYYGSTPDYWGQGTLVTVS
VL: EIVLTQSPDFQSVTPKEKVTITCRASQFVGSSIHWYQQKPDQSPKLLIKYASESMSGVPSRFSGSGSGTDFTFTISSLEAEDAATYYCQQSHSWPFTFGPGTKVDIK
notes: Fab, E. coli lysate
B4: SEQ ID NO 28 (Fab, V domains shown)
VH: EVQLVESGGGLVQPGGSLRLSCAASGSTFSNHWMNWVRQAPGKGLEWIGEIRSKSSYGATSYAESVKGRFIISRDGNGNSLTLEMNSLKTEDTAEYYCAQNYYGSTPDYWGQGTLVTVS
VL: EIVLTQSPDFQSVTPKEKVTITCRASQFVGSSIHWYQQKPDQSPKLLIKYASESMSGVPSRFSGSGSGTDFTFTISSLEAEDAATYYCQQSHSWPFTFGPGTKVDIK
notes: Fab, E. coli lysate
B5: SEQ ID NO 44 (Fab, V domains shown)
VH: EVQLTESGGGLVQPGGSLRLSCAASGFTFSNHWMNWVRQAPGKGLEWIGEIRSKSSYSATHYAESVKGRFIISRDDNKTDLTLEMNSLKTEDTAEYYCARNYYGSTYDYWGQGTLVTVS
VL: EIVLTQSPDFQSVTPKEKVTITCRASQFVGSSIHWYQQKPDQSPKLLIKYASESMSGVPSRFSGSGSGTDFTFTISSLEAEDAATYYCQQSHSWPFTFGPGTKVDIK
notes: Fab, E. coli lysate
B6: SEQ ID NO 40 (Fab, V domains shown)
VH: EVQLVESGGGLVQPGGSLRLSCAASGSTFSNHYMNWVRQAPGKGLEWIGEIRSKSINSATSYAESVKGRFIISRDGNGTSLYLEMNSLKTEDTAEYYCARNYYGSTYDYWGQGTLVTVS
VL: EIVLTQSPDFQSVTPKEKVTITCRASQFVGSSIHWYQQKPDQSPKLLIKYASESMSGVPSRFSGSGSGTDFTFTISSLEAEDAATYYCQQSHSWPFTFGPGTKVDIK
notes: Fab, E. coli lysate
B7: SEQ ID NO 33 (Fab, V domains shown)
VH: EVQLVESGGGLVQPGGSLRLSCRASGSIFSNHYMNWVRQAPGKGLEWIGEIRSKSSNGATHYAESVKGRFIISRDDNKNSLYLEMNSLKTEDTAEYYCARNYYGSTYDYWGQGTLVTVS
VL: EIVLTQSPDFQSVTPKEKVTITCRASQFVGSSIHWYQQKPDQSPKLLIKYASESMSGVPSRFSGSGSGTDFTFTISSLEAEDAATYYCQQSHSWPFTFGPGTKVDIK
notes: Fab, E. coli lysate
B8: SEQ ID NO 36 (Fab, V domains shown)
VH: EVQLVESGGGLVQPGGSLRLSCAASQFTFSNHYMNWVRQAPGKGLEWIGEIRSKSIYGATSYAESVKGRFIISRDDNGTSLYLEMNSLKTEDTAEYYCARNYYGSTYDYWGQGTLVTVS
VL: EIVLTQSPDFQSVTPKEKVTITCRASQFVGSSIHWYQQKPDQSPKLLIKYASESMSGVPSRFSGSGSGTDFTFTISSLEAEDAATYYCQQSHSWPFTFGPGTKVDIK
notes: Fab, E. coli lysate
B9: SEQ ID NO 25 (Fab, V domains shown)
VH: EVQLVESGGGLVQPGGSLRLSCRASQFIFSNHYMNWVRQAPGKGLEWIGEIRSKSINSATHYAESVKGRFIISRDGNKTSLYLEMNSLKTEDTAEYYCAQNYYGSTPDYWGQGTLVTVS
VL: EIVLTQSPDFQSVTPKEKVTITCRASQFVGSSIHWYQQKPDQSPKLLIKYASESMSGVPSRFSGSGSGTDFTFTISSLEAEDAATYYCQQSHSWPFTFGPGTKVDIK
notes: Fab, E. coli lysate
B10: SEQ ID NO 27 (Fab, V domains shown)
VH: EVQLVESGGGLVQPGGSLRLSCAASQFIFSNHYMNWVRQAPGKGLEWIGEIRSKSSNGATHYAESVKGRFIISRDDNKNDLYLEMNSLKTEDTAEYYCAQNYYGSTPDYWGQGTLVTVS
VL: EIVLTQSPDFQSVTPKEKVTITCRASQFVGSSIHWYQQKPDQSPKLLIKYASESMSGVPSRFSGSGSGTDFTFTISSLEAEDAATYYCQQSHSWPFTFGPGTKVDIK
notes: Fab, E. coli lysate
B11: SEQ ID NO 24 (Fab, V domains shown)
VH: EVQLTESGGGLVQPGGSLRLSCAASGSIFSNHWMNWVRQAPGKGLEWIGEIRSKSINGATSYAESVKGRFIISRDDNGNSLTLEMNSLKTEDTAEYYCAQNYYGSTPDYWGQGTLVTVS
VL: EIVLTQSPDFQSVTPKEKVTITCRASQFVGSSIHWYQQKPDQSPKLLIKYASESMSGVPSRFSGSGSGTDFTFTISSLEAEDAATYYCQQSHSWPFTFGPGTKVDIK
notes: Fab, E. coli lysate
B12: SEQ ID NO 45 (Fab, V domains shown)
VH: EVQLVESGGGLVQPGGSLRLSCRASGFIFSNHWMNWVRQAPGKGLEWIGEIRSKSIYSATHYAESVKGRFIISRDGNGNDLTLEMNSLKTEDTAEYYCARNYYGSTPDYWGQGTLVTVS
VL: EIVLTQSPDFQSVTPKEKVTITCRASQFVGSSIHWYQQKPDQSPKLLIKYASESMSGVPSRFSGSGSGTDFTFTISSLEAEDAATYYCQQSHSWPFTFGPGTKVDIK
notes: Fab, E. coli lysate
B13: SEQ ID NO 46 (Fab, V domains shown)
VH: EVQLVESGGGLVQPGGSLRLSCRASGSTFSNHYMNWVRQAPGKGLEWIGEIRSKSSYGATSYAESVKGRFIISRDGNGNDLYLEMNSLKTEDTAEYYCAQNYYGSTPDYWGQGTLVTVS
VL: EIVLTQSPDFQSVTPKEKVTITCRASQFVGSSIHWYQQKPDQSPKLLIKYASESMSGVPSRFSGSGSGTDFTFTISSLEAEDAATYYCQQSHSWPFTFGPGTKVDIK
notes: Fab, E. coli lysate
B14: SEQ ID NO 26 (Fab, V domains shown)
VH: EVQLVESGGGLVQPGGSLRLSCRASQFTFSNHYMNWVRQAPGKGLEWIGEIRSKSIYSATHYAESVKGRFIISRDDNKNDLTLEMNSLKTEDTAEYYCARNYYGSTYDYWGQGTLVTVS
VL: EIVLTQSPDFQSVTPKEKVTITCRASQFVGSSIHWYQQKPDQSPKLLIKYASESMSGVPSRFSGSGSGTDFTFTISSLEAEDAATYYCQQSHSWPFTFGPGTKVDIK
notes: Fab, E. coli lysate
B15: SEQ ID NO 31 (Fab, V domains shown)
VH: EVQLTESGGGLVQPGGSLRLSCAASQFIFSNHYMNWVRQAPGKGLEWIGEIRSKSSYGATHYAESVKGRFIISRDGNKTDLTLEMNSLKTEDTAEYYCAQNYYGSTYDYWGQGTLVTVS
VL: EIVLTQSPDFQSVTPKEKVTITCRASQFVGSSIHWYQQKPDQSPKLLIKYASESMSGVPSRFSGSGSGTDFTFTISSLEAEDAATYYCQQSHSWPFTFGPGTKVDIK
notes: Fab, E. coli lysate

T1 sequence (P01375 77-233 limits assumed): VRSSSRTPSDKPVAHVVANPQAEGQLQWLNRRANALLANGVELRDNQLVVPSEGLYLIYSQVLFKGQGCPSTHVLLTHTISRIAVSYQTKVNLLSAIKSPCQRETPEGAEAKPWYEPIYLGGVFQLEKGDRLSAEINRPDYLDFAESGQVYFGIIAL

The assay addresses T1, human tumor necrosis factor-α (rHuTNF-alpha, Biosource) (human, UniProt P01375 77-233).
T1 construct: Bought recombinant protein coated on ELISA plates; The TNFα of the Biacore assay is not described further; also called TNFα; human TNFα
The assay is described as follows: solid-phase ELISA, Fab lysate on coated rHuTNF-alpha. The procedure:
The Fab libraries were cloned into pTrcHis2A (Cat. No. V365-20, Invitrogen, Carlsbad, Calif.). Proteins were expressed in E. coli and solid-phase ELISA was used to assess Fab binding to human TNFα. Briefly, 96-well plates were coated overnight at 4° C. with 1 μg/ml of rHuTNF-alpha (Biosource, Camarillo, Calif.) in Carbonate-bicarbonate buffer, pH9.4. After washing in PBS with 0.05% (w/v) Tween-20, the wells were blocked with 1% (w/v) BSA in PBS for 1 hour at room temperature. After washing, plates were incubated with transformed E. coli cell lysate diluted in the assay buffer (1% BSA and 0.05% Tween-20 in 10 mM PBS) for 2 hours at room temperature. Various concentrations of infliximab (0.5, 1 and 2 ng/ml) were used as positive anti-Human Kappa Light Chain Biotin/anti-penta-His Biotin control. Plates were washed and incubated with ImmunoPure Goat Anti-Human Kappa Chain, Biotin Conjugated (Cat. No. 31780, Pierce Biotechnology, Rockford, Ill.) and Penta-His Biotin Conjugate (Cat. No. 34440, QIAGEN, Valencia, Calif.) diluted 1:2000 in the assay buffer for 1 hour at room temperature. Following another washing step, plates were probed for 1 hour at room temperature with 100 μL/well of Streptavidin POD (Cat. No. 1089153, Roche Applied Science, Indianapolis, Ind.) diluted 1:4000 in the assay buffer. Plates were further washed and then incubated with 3,3′,5,5′-tetramentylbenzidine (TMB, Cat. No. 34028, Pierce Biotechnology) for 30 minutes. Substrate development was stopped by addition of 100 μL/well TMB Stop Solution (Cat. No. 50-85-05, KPL, Gaithersburg, Md.) and the absorbance was measured at 450 nm via an automated plate spectrophotometer.
On to B1, for which the binding result is “binds”.
The value for B2 was “binds”; that for B3 was “binds”; that for B4 was “binds”.
Regarding B5, the binding result is listed as “binds”.
With B6 the entry was “binds”; with B7, “binds”; with B8, “binds”.
For the molecule B9, the binding result was “binds”.
The value for B10 was “binds”.
The value for B11 was “binds”; that for B12 was “binds”.
The value for B13 was “binds”.
With B14, the binding result is given as “binds”.
As for B15, the binding result is reported as “binds”.

The values are drawn from patent US20070092518A1 (published 2007).
